This is an account of results in article doi:10.1101/2022.11.08.515461 (bioRxiv, 2022).

Series [1] deals with the molecule itself. The series is described as follows: mass photometry.
Series [2] concerns the target yeast dynein_(MOTOR) (wild-type; ZZ-TEV-dynein331-HALO) (budding yeast) (UniProt P36022). The series is described as follows: mass photometry.
Series [3] addresses yeast dynein_(MOTOR)^MT-U (microtubule-unbound mutant of the motor domain) (budding yeast | T. thermophilus) (UniProt P34945). Nature of the series: mass photometry.
In series [4] the target is human dynein_(MOTOR)^MT-U (microtubule-unbound mutant of the motor domain) (human | T. thermophilus). The series is described as follows: cryo-EM structure.
Series [5] concerns the target human dynein_(MOTOR) (wild-type motor domain, residues 1458-4646) (human, UniProt Q14204 1458-4646). The series is described as follows: mass photometry.
Series [6] deals with human dynein_(MOTOR)^MT-B (microtubule-bound mutant of the motor domain) (human | T. thermophilus). The series is described as follows: mass photometry.
The target in series [7] is human dynein_(MOTOR)^MT-U (microtubule-unbound mutant of the motor domain) (human | T. thermophilus). The series is described as follows: mass photometry.

Sequence of yeast dynein_(MOTOR) (wild-type; ZZ-TEV-dynein331-HALO) (budding yeast) (P36022 whole entry, the tested form may be a part): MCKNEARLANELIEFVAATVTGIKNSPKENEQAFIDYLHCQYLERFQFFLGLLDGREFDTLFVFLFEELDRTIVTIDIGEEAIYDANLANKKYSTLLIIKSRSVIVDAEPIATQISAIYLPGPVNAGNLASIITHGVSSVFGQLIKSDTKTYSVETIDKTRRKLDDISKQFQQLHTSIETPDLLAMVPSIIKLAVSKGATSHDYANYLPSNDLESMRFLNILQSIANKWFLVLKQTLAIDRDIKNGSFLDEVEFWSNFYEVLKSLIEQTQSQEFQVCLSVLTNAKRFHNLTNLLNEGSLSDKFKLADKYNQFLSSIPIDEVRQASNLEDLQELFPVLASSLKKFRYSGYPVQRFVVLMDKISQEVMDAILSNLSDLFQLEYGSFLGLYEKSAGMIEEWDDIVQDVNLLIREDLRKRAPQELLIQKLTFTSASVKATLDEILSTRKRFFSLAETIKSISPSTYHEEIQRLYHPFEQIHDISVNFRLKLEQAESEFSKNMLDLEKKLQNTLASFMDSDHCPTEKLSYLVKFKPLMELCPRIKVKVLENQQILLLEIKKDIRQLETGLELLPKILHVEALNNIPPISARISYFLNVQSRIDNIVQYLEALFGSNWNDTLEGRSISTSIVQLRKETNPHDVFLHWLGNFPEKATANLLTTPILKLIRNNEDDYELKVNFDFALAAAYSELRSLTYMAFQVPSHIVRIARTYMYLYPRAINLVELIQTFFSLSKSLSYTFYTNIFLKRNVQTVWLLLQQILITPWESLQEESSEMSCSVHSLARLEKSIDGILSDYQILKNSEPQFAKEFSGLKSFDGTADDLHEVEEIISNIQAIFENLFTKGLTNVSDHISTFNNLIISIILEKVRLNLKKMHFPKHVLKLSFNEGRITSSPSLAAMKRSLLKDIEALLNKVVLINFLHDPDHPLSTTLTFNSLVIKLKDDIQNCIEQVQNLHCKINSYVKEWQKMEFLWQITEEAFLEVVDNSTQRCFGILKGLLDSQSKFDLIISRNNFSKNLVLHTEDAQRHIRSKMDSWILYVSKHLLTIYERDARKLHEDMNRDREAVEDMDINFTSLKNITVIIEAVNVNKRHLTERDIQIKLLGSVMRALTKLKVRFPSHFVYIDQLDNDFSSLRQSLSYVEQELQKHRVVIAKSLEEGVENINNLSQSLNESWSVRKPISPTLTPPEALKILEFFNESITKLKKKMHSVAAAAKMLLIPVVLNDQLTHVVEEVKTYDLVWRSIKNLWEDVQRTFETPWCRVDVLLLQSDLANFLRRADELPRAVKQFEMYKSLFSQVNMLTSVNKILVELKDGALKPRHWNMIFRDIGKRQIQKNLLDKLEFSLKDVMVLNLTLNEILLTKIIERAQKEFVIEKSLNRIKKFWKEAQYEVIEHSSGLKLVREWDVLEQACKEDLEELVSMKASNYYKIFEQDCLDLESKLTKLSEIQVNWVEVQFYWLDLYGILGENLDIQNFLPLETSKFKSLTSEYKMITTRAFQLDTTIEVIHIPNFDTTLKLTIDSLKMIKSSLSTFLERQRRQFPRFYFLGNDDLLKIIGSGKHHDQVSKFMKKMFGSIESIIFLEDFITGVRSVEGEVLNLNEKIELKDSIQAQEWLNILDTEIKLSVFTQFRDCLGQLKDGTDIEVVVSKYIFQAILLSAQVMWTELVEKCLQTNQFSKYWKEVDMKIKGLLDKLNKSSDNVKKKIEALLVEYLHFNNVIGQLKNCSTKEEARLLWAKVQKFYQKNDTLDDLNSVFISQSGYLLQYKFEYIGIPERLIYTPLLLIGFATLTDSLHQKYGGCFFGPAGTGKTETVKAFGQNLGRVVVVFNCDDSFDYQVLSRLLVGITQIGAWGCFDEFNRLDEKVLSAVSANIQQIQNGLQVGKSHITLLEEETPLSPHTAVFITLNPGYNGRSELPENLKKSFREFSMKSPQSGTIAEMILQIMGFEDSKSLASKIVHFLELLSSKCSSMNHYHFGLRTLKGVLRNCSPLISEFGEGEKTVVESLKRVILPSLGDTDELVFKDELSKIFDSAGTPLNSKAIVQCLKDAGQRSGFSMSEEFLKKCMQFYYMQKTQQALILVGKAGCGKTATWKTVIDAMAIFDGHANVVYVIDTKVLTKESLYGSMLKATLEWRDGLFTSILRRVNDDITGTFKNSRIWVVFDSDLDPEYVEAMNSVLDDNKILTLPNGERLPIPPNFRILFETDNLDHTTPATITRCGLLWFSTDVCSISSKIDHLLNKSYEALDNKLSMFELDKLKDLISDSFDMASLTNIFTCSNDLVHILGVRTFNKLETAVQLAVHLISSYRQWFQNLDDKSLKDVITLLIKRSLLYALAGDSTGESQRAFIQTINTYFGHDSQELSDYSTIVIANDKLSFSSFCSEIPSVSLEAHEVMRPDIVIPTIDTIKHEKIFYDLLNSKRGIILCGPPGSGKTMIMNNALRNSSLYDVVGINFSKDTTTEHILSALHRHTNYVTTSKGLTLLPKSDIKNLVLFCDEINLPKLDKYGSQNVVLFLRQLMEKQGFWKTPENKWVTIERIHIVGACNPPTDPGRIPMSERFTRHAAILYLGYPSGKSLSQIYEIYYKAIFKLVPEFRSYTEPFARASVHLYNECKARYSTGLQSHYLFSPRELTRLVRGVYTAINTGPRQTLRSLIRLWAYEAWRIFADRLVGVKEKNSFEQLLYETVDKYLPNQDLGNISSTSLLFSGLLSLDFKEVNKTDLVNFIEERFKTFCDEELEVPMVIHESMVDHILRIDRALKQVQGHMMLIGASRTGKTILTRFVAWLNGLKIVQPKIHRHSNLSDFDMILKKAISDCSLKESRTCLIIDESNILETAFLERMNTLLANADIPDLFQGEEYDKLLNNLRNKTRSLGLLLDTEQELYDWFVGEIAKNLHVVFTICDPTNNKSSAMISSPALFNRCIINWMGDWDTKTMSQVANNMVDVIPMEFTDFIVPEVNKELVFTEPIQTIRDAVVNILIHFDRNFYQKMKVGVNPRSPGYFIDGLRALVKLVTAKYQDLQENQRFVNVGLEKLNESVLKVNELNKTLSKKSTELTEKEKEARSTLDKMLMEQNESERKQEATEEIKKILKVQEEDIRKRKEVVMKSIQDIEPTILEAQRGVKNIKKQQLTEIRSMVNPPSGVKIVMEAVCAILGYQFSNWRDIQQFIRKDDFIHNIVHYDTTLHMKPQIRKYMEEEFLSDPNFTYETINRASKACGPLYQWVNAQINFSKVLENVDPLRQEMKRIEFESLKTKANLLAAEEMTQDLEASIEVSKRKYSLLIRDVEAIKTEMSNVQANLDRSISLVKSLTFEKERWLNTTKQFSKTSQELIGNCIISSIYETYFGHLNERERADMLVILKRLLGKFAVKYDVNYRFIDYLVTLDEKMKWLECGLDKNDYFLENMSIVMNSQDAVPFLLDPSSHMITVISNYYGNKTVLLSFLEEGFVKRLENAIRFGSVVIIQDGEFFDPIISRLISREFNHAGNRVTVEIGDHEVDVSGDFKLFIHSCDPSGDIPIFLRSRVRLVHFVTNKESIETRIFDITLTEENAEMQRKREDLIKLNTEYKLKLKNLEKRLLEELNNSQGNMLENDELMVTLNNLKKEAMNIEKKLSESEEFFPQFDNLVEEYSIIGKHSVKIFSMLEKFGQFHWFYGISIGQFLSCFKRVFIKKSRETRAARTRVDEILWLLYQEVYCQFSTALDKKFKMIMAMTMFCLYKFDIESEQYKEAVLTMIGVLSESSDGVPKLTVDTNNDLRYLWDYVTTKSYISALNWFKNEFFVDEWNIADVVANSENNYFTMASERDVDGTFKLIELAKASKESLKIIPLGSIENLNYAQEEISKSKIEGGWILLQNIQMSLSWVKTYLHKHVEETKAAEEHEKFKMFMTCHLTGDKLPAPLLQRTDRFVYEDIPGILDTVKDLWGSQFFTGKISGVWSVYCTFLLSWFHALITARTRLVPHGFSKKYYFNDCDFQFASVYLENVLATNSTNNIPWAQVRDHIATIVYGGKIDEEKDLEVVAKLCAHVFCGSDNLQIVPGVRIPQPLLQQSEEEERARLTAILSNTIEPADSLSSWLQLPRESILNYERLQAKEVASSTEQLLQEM
Sequence of yeast dynein_(MOTOR)^MT-U (microtubule-unbound mutant of the motor domain) (budding yeast | T. thermophilus) (P34945 whole entry, change not shown, the tested form may be a part): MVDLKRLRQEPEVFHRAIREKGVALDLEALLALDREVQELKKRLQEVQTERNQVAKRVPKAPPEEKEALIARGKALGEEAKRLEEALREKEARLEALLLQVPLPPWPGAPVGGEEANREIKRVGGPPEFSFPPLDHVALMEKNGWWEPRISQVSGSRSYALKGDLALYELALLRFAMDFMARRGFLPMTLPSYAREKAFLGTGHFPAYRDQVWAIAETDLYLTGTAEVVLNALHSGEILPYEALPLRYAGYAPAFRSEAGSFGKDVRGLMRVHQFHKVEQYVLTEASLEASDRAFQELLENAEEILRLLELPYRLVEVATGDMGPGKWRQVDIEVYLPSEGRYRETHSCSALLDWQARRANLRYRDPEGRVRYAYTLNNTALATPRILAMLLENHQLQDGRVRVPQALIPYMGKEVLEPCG

B1: Pac1-SNAP (natural protein)
chain: MTNWQQQLPLTDTQKNELDKSVLRYLNWNYKQTVRHEHAQDYESVRHAIVTLSGFLLQESVDRQEFISNNDTSNESMVDIDELLLPKKWNSIVRLQKKIIELEQNTETLVSQIKDLNTQVSELAQFKPTTSNGTSAHNVLKWIPRNLPSCLINVESSVTSVKLHPNLPIVFVATDHGKLYAFDLFNYTIPLASLQSHTKAITSMDVLFTNYTNSSKKNYLVIVTASKDLQIHVFKWVSEECKFQQIRSLLGHEHIVSAVKIWQKNNDVHIASCSRDQTVKIWDFHNGWSLKTFQPHSQWVRSIDVLGDYIISGSHDTTLRLTHWPSGNGLSVGTGHEFPIEKVKFIHFIEDSPEIRFRTPSTDRYKNWGMQYCVSASRDRTIKIWEIPLPTLMAHRAPIPNPTDSNFRCVLTLKGHLSWVRDISIRGQYLFSCADDKSVRCWDLNTGQCLHVWEKLHTGFVNCLDLDVDFDSNVTPRQMMVTGGLDCKSNVFMR
modifications: JF646-SNAP-tag ligand on the SNAP tag (fluorescent labelling)
As usually defined, the stoichiometry N is a count of units in the complex or per binding partner. As for B1, the “stoichiometry N” value in series [1] turned out to be 2. Moreover, in series [2], the N of the second species (∼890 kDa) (dynein monomers per Pac1 dimer) stood at 2. The molecule also displayed a stoichiometry N (Pac1 dimer per dynein (MOTOR) monomer) in series [3] of 1.

B2: human LIS1-SNAP (from pFastBac:8His-ZZ-TEV-LIS1-SNAPf) (natural protein)
chain: MVLSQRQRDELNRAIADYLRSNGYEEAYSVFKKEAELDVNEELDKKYAGLLEKKWTSVIRLQKKVMELESKLNEAKEEFTSGGPLGQKRDPKEWIPRPPEKYALSGHRSPVTRVIFHPVFSVMVSASEDATIKVWDYETGDFERTLKGHTDSVQDISFDHSGKLLASCSADMTIKLWDFQGFECIRTMHGHDHNVSSVAIMPNGDHIVSASRDKTIKMWEVQTGYCVKTFTGHREWVRMVRPNQDGTLIASCSNDQTVRVWVVATKECKAELREHEHVVECISWAPESSYSSISEATGSETKKSGKPGPFLLSGSRDKTIKMWDVSTGMCLMTLVGHDNWVRGVLFHSGGKFILSCADDKTLRVWDYKNKRCMKTLNAHEHFVTSLDFHKTAPYVVTGSVDQTVKVWECR
Take B2: in series [4], the percent of particles with 1 LIS1 bound (3D classification) is 36.2%, the percent of particles with 2 LIS1 bound (3D classification) was 29.3% and the percent of particles with “1.5” LIS1 bound (3D classification) worked out at 34.4%. In series [4] (scale: LIS1 WD40 beta-propellers per dynein motor), this molecule gave a stoichiometry N of 2. Further, the binding result in series [5] is listed as “binds”. In series [6], this molecule returned a stoichiometry N (LIS1 dimer per dynein (MOTOR) monomer) of 1. In series [7], the fold LIS1-binding affinity against dynein (MOTOR)^MT-B came to 2 fold and the stoichiometry N (LIS1 dimer per dynein (MOTOR) monomer) was found to be 1.
